This is an account of results in US20210393741A1.

In the assay the target is CD91 on macrophages (mouse (C57BL/6 mice)) (UniProt Q91ZX7). Briefly: cell-based or functional assay.
Sequence of UniProt Q91ZX7 (Q91ZX7 20-4545): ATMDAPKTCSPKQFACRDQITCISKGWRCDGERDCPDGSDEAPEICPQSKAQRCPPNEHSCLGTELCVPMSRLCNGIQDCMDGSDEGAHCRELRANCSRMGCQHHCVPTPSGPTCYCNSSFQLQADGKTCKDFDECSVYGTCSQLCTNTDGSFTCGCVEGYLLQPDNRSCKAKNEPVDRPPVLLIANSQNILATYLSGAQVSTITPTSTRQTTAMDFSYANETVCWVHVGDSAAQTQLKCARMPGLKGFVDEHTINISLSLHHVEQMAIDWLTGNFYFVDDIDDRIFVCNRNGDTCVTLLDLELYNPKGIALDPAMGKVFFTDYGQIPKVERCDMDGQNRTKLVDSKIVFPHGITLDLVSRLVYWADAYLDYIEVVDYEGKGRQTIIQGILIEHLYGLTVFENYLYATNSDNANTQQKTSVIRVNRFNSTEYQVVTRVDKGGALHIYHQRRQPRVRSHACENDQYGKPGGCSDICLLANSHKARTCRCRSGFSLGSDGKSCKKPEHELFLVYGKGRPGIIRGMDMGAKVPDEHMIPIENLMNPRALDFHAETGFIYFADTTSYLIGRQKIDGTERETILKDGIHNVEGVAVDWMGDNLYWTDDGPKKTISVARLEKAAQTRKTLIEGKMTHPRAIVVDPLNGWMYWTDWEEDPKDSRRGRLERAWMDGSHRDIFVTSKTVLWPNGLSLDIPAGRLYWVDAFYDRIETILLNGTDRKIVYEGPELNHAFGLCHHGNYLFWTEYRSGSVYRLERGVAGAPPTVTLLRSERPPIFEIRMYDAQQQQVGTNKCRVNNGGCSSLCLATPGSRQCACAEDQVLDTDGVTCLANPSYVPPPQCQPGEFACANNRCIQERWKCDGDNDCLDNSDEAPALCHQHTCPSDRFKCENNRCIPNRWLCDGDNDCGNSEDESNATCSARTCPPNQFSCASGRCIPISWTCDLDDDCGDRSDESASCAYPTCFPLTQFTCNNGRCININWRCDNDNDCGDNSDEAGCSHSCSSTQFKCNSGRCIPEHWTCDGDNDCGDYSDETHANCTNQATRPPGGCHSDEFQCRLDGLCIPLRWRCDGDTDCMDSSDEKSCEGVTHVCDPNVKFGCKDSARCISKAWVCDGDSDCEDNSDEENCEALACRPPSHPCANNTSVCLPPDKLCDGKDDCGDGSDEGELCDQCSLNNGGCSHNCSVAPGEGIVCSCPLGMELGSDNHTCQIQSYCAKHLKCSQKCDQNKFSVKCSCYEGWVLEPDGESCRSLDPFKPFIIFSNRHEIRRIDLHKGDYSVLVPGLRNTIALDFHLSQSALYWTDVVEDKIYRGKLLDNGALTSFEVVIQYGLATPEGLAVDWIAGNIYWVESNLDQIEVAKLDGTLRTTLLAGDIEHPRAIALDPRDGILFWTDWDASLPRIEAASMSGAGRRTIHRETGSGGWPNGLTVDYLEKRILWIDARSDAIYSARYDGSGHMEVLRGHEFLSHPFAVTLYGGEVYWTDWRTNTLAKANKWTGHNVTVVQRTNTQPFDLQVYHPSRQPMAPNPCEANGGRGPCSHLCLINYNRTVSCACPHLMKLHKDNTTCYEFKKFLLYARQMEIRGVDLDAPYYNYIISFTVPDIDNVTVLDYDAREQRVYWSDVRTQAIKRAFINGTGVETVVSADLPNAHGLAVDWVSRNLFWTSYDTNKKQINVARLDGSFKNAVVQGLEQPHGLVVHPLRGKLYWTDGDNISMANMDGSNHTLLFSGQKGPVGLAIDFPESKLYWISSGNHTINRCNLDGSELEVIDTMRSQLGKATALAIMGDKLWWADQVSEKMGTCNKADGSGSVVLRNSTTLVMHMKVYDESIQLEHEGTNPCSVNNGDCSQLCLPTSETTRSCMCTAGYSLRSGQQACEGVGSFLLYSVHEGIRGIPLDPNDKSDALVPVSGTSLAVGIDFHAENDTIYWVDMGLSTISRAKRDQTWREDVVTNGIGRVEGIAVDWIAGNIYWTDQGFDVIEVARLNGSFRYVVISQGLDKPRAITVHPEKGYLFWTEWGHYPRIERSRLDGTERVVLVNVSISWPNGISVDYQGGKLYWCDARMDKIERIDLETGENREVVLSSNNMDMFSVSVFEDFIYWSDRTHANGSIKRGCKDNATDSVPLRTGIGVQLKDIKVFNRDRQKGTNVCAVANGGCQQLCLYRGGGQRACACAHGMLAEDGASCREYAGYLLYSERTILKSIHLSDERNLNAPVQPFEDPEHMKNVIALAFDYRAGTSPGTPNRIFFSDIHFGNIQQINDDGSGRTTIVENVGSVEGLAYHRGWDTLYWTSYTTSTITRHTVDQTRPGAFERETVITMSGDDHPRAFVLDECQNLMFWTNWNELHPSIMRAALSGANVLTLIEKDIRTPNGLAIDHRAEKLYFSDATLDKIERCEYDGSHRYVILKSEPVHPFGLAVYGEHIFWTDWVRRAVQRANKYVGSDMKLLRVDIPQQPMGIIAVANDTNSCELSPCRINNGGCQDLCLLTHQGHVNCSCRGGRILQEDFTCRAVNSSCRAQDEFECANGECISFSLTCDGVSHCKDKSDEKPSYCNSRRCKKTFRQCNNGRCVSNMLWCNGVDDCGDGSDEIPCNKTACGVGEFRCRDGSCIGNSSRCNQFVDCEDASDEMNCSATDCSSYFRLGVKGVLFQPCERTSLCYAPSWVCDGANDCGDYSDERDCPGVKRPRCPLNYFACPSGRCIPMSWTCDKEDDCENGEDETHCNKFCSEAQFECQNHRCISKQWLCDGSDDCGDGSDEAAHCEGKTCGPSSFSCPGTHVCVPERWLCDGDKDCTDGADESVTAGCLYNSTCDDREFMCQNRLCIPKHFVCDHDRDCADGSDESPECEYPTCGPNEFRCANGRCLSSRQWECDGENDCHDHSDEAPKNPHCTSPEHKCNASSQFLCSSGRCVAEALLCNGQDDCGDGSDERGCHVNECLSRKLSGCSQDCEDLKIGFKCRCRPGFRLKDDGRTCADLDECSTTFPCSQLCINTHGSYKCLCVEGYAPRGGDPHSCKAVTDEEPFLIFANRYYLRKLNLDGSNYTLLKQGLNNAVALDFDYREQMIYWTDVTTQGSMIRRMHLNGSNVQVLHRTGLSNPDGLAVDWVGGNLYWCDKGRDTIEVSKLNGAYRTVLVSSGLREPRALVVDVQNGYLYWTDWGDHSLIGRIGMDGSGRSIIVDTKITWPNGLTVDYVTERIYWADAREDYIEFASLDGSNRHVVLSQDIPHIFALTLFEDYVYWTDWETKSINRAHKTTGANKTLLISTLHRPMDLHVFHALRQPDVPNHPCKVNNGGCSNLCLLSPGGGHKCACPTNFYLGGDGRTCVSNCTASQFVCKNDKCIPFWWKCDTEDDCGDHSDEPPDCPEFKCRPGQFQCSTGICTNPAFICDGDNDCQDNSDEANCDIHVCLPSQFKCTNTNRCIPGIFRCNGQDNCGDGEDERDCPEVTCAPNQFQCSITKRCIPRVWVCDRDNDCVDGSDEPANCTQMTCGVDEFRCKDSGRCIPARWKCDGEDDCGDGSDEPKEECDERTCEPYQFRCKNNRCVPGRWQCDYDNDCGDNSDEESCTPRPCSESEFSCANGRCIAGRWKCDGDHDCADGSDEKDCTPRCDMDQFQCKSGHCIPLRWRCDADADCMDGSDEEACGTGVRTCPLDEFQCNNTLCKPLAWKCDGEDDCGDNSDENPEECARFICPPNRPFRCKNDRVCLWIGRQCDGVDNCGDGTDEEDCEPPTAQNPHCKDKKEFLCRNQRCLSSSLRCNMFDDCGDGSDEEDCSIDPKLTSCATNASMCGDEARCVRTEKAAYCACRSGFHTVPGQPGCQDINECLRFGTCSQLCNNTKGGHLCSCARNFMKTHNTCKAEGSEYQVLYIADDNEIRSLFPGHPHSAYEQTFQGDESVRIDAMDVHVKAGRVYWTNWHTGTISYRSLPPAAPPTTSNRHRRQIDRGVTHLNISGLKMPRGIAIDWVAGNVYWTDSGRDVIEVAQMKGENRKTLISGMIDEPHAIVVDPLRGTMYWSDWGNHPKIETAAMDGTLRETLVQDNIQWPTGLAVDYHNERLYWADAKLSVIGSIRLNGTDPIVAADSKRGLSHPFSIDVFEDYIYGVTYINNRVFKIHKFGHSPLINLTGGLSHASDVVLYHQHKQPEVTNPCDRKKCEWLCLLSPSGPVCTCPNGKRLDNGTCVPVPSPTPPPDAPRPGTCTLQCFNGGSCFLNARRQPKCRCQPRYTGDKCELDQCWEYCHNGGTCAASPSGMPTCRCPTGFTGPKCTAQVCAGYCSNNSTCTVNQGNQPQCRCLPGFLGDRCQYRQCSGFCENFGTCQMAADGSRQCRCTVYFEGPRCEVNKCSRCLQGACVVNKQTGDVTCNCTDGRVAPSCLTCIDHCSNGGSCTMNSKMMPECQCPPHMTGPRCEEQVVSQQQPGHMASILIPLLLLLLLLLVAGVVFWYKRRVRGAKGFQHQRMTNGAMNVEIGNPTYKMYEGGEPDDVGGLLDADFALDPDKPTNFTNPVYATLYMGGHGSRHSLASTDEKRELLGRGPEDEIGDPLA

Regarding “calreticulin (CRT), recombinant (ligand)”, the IFN alpha MFI (Fold Change), RAW264.7 macrophage (M1) cells pulsed with calreticulin 10 ug/ml for 20 min, FACS stood at 7.5 fold change; the IFN beta MFI (Fold Change), RAW264.7 macrophage (M1) cells pulsed with calreticulin 10 ug/ml for 20 min, FACS is 7 fold change; the IL-12 MFI (Fold Change), RAW264.7 macrophage (M1) cells pulsed with calreticulin 10 ug/ml for 20 min, FACS came to 3.5 fold change; the IL-15 MFI (Fold Change), RAW264.7 macrophage (M1) cells pulsed with calreticulin 10 ug/ml for 20 min, FACS is 3.5 fold change.
